US20230250148A1 (published 2023)

Assays:
biotinylated canine FcRn [1] = molecular target: T1, biotinylated canine FcRn (canine, UniProt A0A8I3PFR8 25-347, biotinylated, site not stated); assay: ELISA pH 5.5, fusion protein coated, biotinylated canine FcRn titrated
Protocol: (§1) Insulin-Fc fusion proteins comprising Fc fragments of canine origin were diluted to 10 µg/ml in sodium bicarbonate pH 9.6 buffer and coated in duplicate on Maxisorb ELISA plate strips for 1-2 hours at RT. The strips were then washed 4 times with PBST (PBS/0.1% Tween-20) buffer and blocked with Superblock blocking reagent (ThermoFisher). Strips for FcRn binding were then washed again twice with pH 5.5 MES/NaCl/Tween (50 mM MES/150mM NaCl/0.1% Tween-20) buffer before addition of the FcRn reagent (biotinylated canine FcRn; Immunitrack). Serial dilutions (1:3X dilutions) of biotinylated FcRn reagent were prepared in pH 5.5 MES/NaCl/Tween/10%Superblock buffer at concentrations from 1000 ng/ml to 0.45 ng/mL and loaded at 100 µL/well using a multichannel pipettor onto the strips coated with the insulin-Fc fusion protein compounds. The assay plate was then incubated for 1 hour at room temperature. FcRn binding strips were washed 4 times with pH 5.5 MES/NaCl/Tween buffer and then loaded with 100 µl/well streptavidin-HRP diluted 1:10000 in pH 5.5 MES/NaCl /10%Superblock buffer. After incubating for 45 minutes, strips were washed again 4 times with pH 5.5 MES/NaCl/Tween buffer. […] The plate was read in an ELISA plate reader at a wavelength of 450 nm. […] EC50 values for each binding curve were calculated to compare between different compounds.

[2] = molecular target: T2, biotinylated recombinant human Fc(gamma)RI (human, UniProt P12314 16-288, biotinylated, site not stated); assay: ELISA, fusion protein coated, biotinylated rhFc(gamma)RI at 3000 ng/mL
T2 construct: Bought reagent; construct not described; also called rhFc(gamma)RI; Fc(gamma) receptor I
Protocol: The binding of insulin-Fc fusion proteins to the Fc(gamma)RI at pH 7.4 is conducted using an ELISA assay as follows using human Fc(gamma)RI (i.e., rhFc(gamma)RI). Insulin-Fc fusion proteins are diluted to 10 µg/mL in sodium bicarbonate buffer at pH 9.6 and coated on Maxisorp (Nunc) microtiter plates overnight at 4° C., after which the microplate strips are washed 5 times with PBST (PBS/0.05% Tween-20) buffer and blocked with Superblock blocking reagent (ThermoFisher). Serial dilutions of biotinylated rhFc(gamma)RI (recombinant human Fc(gamma)RI; R&D Systems) are prepared in PBST/10% Superblock buffer from 3000 ng/mL to 4.1 ng/mL and loaded at 100 µL/well onto the microplate strips coated with insulin-Fc fusion protein. The microtiter plate is incubated for 1 hour at room temperature after which time the microplate strips are washed 5 times with PBST and then loaded with 100 µL/well of streptavidin-HRP diluted 1:10000 in PBST/10% Superblock buffer. After incubating for 45 min, the microplate strips are washed again 5 times with PBST. TMB is added to reveal the bound Fc(gamma)RI proteins and is stopped with ELISA stop reagent (Boston Bioproducts). The plate is read in an ELISA plate reader at 450 nm, and the OD450 values (proportional to the binding of rhFc(gamma)RI to insulin-Fc protein) are plotted against log concentrations of rhFc(gamma)RI added to each well to generate binding curves using GraphPad Prism software. For groupings of compounds with somewhat similar curves, the OD450 at one of the higher concentrations, for instance at rhFc(gamma)RI concentrations of 3000 ng/mL, can be used to identify differences between coated insulin-Fc fusion protein compounds. […]
Finally, select compounds were tested for their likelihood to interact with the immune system by measuring their Fc(gamma) receptor binding activity according to the procedure of Example 15.

[3] = molecular target: T3, human insulin receptor (IR) on human IM-9 cells (human, UniProt P06213 28-1382); assay: competition with biotinylated RHI on IM-9 cells, flow cytometry, 4 C
T3 construct: whole, on cells; also called human IR
Protocol: (§2) 40 µL of an IM-9 cell suspension (8×10⁶ cells/mL) was then added to each well by multichannel pipette, mixed again gently and incubated on ice for 30 min to allow competitive binding on the IR on IM-9 cells. Cells were then washed twice with 275µL of ice-cold FACS wash buffer (HBSS/2mM EDTA/0.1% Na-azide + 0.5% horse serum) by centrifuging the V-bottom plate at 3000 rpm for 3 min and aspirating the supernatant. Cells were then resuspended in 40µL of FACS staining medium containing 1:100 diluted Streptavidin-PE (Life Technologies) for 20 min on ice. Cells were then washed once with 275 µL of ice-cold FACS buffer and finally fixed with 3% paraformaldehyde for 10 min at room temp. Cells were then washed once with 275 µL of ice-cold FACS buffer and resuspended in 250µl of FACS buffer for analysis.
(§3) The insulin-Fc fusion proteins were manufactured in HEK293 cells according to Example 1 and purified using a Protein A column according to Example 4. Their structures were confirmed according to Example 6 by non-reducing and reducing CE-SDS, and the sequences were further identified by LC-MS with glycan removal according to Example 8. Their %homodimer content was measured by size-exclusion chromatography according to Example 10, and their insulin receptor binding affinities were measured according to Example 12.

[4] = molecular target: T3, human insulin receptor (IR) on human …; assay: as above; remark: listed apart in the source
Protocol: as §2, §3

[5] = molecular target: T3, human insulin receptor (IR) on human …; assay: as above; remark: listed apart in the source
Protocol: as §2, §3

[6] = molecular target: T3, human insulin receptor (IR) on human …; assay: competition with biotinylated RHI on IM-9 cells, flow cytometry, 4 C; material purified via Protein A
Protocol: as §2
(§4) The insulin-Fc fusion proteins were manufactured in HEK293 cells according to Example 1 and purified using a Protein A or Protein G columns according to Example 4. […] Their %homodimer content was measured by size-exclusion chromatography according to Example 10, and their insulin receptor binding affinities were measured according to Example 12. Additionally, the insulin-Fc fusion protein affinities for the canine FcRn receptor were measured according to Example 15.

[7] = molecular target: T3, human insulin receptor (IR) on human …; assay: competition with biotinylated RHI on IM-9 cells, flow cytometry, 4 C; material purified by Protein G
Protocol: as §2, §4

biotinylated canine FcRn [8] = molecular target: T1, biotinylated canine FcRn; assay: FcRn ELISA; species of FcRn not given, taken as canine
Protocol: as §1

[9] = molecular target: T3, human insulin receptor (IR) on human …; assay: competition with biotinylated RHI on IM-9 cells, flow cytometry, 4 C; remark: listed apart in the source

T2 sequence (P12314 16-288 limits assumed): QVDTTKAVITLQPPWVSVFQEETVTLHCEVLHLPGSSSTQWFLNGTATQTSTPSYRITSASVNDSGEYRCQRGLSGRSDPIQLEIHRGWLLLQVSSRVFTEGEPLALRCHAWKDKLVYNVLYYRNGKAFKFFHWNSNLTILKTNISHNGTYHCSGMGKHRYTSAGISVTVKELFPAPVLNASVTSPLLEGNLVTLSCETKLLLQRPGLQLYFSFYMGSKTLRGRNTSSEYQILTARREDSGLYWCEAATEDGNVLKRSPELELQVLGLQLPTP
T1 sequence (A0A8I3PFR8 entry or part of it): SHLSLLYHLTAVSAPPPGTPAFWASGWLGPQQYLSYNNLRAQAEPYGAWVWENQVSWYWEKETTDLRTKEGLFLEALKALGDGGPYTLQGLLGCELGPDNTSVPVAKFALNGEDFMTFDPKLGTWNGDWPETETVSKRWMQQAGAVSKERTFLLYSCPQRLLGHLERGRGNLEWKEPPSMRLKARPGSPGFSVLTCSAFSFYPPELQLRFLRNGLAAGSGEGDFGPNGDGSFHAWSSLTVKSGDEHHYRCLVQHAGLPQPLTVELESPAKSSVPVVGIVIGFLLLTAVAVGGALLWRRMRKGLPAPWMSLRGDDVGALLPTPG
T3 sequence (P06213 28-1382): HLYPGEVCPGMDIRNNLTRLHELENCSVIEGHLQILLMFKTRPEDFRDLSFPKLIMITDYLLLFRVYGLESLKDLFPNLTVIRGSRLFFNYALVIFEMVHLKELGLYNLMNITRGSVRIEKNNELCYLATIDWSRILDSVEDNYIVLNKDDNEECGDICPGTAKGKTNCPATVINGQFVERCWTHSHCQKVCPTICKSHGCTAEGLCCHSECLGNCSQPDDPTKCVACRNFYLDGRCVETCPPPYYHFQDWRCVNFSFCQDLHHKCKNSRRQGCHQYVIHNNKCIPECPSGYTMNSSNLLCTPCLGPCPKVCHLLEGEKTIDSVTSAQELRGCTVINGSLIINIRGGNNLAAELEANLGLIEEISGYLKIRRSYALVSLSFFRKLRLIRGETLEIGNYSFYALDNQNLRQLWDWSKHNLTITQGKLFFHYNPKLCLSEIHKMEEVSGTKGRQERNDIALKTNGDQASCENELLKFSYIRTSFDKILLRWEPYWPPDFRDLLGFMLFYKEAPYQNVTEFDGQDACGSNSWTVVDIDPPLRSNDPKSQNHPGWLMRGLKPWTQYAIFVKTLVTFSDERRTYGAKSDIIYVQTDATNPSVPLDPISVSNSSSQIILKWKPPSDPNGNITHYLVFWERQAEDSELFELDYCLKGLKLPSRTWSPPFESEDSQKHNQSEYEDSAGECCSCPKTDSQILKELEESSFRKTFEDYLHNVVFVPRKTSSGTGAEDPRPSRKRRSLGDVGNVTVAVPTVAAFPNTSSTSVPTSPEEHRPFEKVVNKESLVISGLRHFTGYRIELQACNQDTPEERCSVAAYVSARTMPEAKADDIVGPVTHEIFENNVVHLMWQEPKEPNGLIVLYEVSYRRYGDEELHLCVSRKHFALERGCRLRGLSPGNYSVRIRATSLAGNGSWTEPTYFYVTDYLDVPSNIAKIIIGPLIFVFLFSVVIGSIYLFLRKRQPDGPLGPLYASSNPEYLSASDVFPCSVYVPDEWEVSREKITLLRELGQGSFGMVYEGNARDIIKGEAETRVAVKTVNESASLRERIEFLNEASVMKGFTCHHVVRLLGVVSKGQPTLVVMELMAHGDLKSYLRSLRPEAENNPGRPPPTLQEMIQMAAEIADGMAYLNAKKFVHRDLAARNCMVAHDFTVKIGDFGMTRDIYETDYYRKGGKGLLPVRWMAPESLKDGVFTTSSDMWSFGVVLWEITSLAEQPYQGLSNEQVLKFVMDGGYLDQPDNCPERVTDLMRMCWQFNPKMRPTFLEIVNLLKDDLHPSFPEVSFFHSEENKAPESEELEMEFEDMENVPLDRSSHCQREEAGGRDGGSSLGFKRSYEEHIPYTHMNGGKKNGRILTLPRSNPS

B1: insulin-Fc fusion protein of SEQ ID NO: 26 (Fc fusion)
chain: FVNQHLCGSHLVEALELVCGERGFHYGGGGGGSGGGGGIVEQCCTSTCSLDQLENYCGGGGGQGGGGQGGGGQGGGGGDCPKCPAPEMLGGPSVFIFPPKPKDTLLIARTPEVTCVVVDLDPEDPEVQISWFVDGKQMQTAKTQPREEQFNGTYRVVSVLPIGHQDWLKGKQFTCKVNNKALPSPIERTISKARGQAHQPSVYVLPPSREELSKNTVSLTCLIKDFFPPDIDVEWQSNGQQEPESKYRTTPPQLDEDGSYFLYSKLSVDKSRWQRGDTFICAVMHEALHNHYTQESLSHSPG
modifications: native N-glycosylation site cNg-NB151
B1 was tested, and the EC50 (biotinylated canine FcRn [1]) was 0.599 µg/mL, the OD450nm [2] was 0.368 and the “OD450nm minus assay background” value [2] was 0.311. The “ratio to SEQ ID NO: 36” value [2] was 0.84, the IC50 [3] was 2340 nM and the IC50 [4] was 2340 nM. The IC50 [5] was 2340 nM.

B2: insulin-Fc fusion protein of SEQ ID NO: 58 (Fc fusion)
chain: FVNQHLCGSHLVEALELVCGERGFHYGGGGGGSGGGGGIVEQCCTSTCSLDQLENYCGGGGGQGGGGQGGGGQGGGGGRCTDTPPCPVPEPLGGPSVLIFPPKPKDILRITRTPEVTCVVLDLGREDPEVQISWFVDGKEVHTAKTQSREQQFNGTYRVVSVLPIEHQDWLTGKEFKCRVNHIDLPSPIERTISKARGRAHKPSVYVLPPSPKELSSSDTVSITCLIKDFYPPDIDVEWQSNGQQEPERKHRMTPPQLDEDGSYFLYSKLSVDKSRWQQGDPFTCAVMHETLQNHYTDLSLSHSPG
notes: purified by Protein A or Protein G
With B2 the EC50 (biotinylated canine FcRn [1]) was 1.61 µg/mL, the OD450nm [2] was 0.253 and the “OD450nm minus assay background” value [2] was 0.196. The “ratio to SEQ ID NO: 36” value [2] was 0.53 and the IC50 [6] was 2590 nM.

B3: insulin-Fc fusion protein of SEQ ID NO: 59 (Fc fusion)
chain: FVNQHLCGSHLVEALELVCGERGFHYGGGGGGSGGGGGIVEQCCTSTCSLDQLENYCGGGGGQGGGGQGGGGQGGGGGCNNCPCPGCGLLGGPSVFIFPPKPKDILVTARTPTVTCVVVDLDPENPEVQISWFVDSKQVQTANTQPREEQSNGTYRVVSVLPIGHQDWLSGKQFKCKVNNKALPSPIEEIISKTPGQAHQPNVYVLPPSRDEMSKNTVTLTCLVKDFFPPEIDVEWQSNGQQEPESKYRMTPPQLDEDGSYFLYSKLSVDKSRWQRGDTFICAVMHEALHNHYTQISLSHSPG
notes: purified by Protein G
For B3, the IC50 [7] was 2080 nM.

B4: insulin-Fc fusion protein of SEQ ID NO: 30 (Fc fusion)
chain: FVNQHLCGSHLVEALALVCGERGFHYGGGGGGSGGGGGIVEQCCTSTCSLDQLENYCGGGGGQGGGGQGGGGQGGGGGDCPKCPAPEMLGGPSVFIFPPKPKDTLLIARTPEVTCVVVDLDPEDPEVQISWFVDGKQMQTAKTQPREEQFSGTYRVVSVLPIGHQDWLKGKQFTCKVNNKALPSPIERTISKARGQAHQPSVYVLPPSREELSKNTVSLTCLIKDFFPPDIDVEWQSNGQQEPESKYRTTPPQLDEDGSYFLYSKLSVDKSRWQRGDTFICAVMHEALHNHYTQESLSHSPG
B4 was tested, and the EC50 (biotinylated canine FcRn [8]) was 1.19 µg/mL, the OD450nm [2] was 0.177 and the “OD450nm minus assay background” value [2] was 0.12. For the same binder, the “ratio to SEQ ID NO: 36” value [2] was 0.32 and the IC50 [9] was 2040 nM.
